Values of other authors as cited in publication PMC9776232.

Biological target: Amyloid beta (Homo sapiens) (UniProt P05067)
Sequence (P05067 672-711): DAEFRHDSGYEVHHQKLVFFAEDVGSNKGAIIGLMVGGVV

L-PGDS, sequence (P41222 23-190): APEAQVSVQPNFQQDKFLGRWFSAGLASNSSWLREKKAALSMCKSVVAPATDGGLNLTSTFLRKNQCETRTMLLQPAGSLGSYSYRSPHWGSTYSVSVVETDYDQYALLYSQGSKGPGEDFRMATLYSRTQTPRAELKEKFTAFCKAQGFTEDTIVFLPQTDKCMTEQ

Kd: 34 nM
Substance: L-PGDS (from UniProt P41222)
